# B1: LILRB3 mAb clone A16 (antibody, human IgG1, V domains shown)
# VH: EVQLLESGGGLVQPGGSLRLSCAASGFTFSSYWMSWVRQAPGKGLEWVSRINTHGTNIDYADSVKGRFTISRDNSKNTLYLQMNSLRAEDTAVYYCVGVAGTGWFDPWGQGTLVTVSS
# VL: QSVLTQPPSASGTPGQRVTISCTGSSSNIGAGYDVHWYQQLPGTAPKLLIYGNNNRPSGVPDRFSGSKSGTSASLAISGLRSEDEADYYCQSYDTSLSGSVFGGGTKLTVLG
# notes: Fully human IgG1, full-length IgG; only variable domains tied to the clone; APC-labelled for staining of primary cells; deglycosylated in the T cell assay
# Target: T1, LILRB3-hFc recombinant protein (human, UniProt O75022 24-443)
# T1 construct: extracellular domain; also called LILRB-Fc; the extracellular LILRB3 domain with a human Fc tag; not shown: human Fc tag
# Assay: SPR (Biacore T100), LILRB3-hFc amine-coupled on CM5 chip, mAb as analyte, 1:1 model
# Method: SPR was performed with the Biacore T100 (GE Healthcare, UK) as per the manufacturer's instructions. LILRB3-hFc recombinant protein (the extracellular LILRB3 domain with a human Fc tag) was used as the ligand and immobilized by amine coupling onto a series S sensor chip (CM5). Various LILRB3 mAb were used as “analytes” and flowed across the chip, and SPR measured.
# T1 sequence (O75022 24-443): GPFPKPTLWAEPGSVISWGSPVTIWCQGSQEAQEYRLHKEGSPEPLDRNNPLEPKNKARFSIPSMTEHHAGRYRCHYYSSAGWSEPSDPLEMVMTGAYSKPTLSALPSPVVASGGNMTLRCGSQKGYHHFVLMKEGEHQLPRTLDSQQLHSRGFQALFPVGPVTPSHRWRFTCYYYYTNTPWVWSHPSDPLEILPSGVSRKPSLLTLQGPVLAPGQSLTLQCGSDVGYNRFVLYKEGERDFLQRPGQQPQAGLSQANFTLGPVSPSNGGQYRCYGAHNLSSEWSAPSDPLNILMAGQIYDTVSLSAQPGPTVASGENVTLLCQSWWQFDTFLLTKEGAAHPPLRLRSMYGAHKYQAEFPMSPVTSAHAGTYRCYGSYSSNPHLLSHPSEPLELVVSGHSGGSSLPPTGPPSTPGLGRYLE
binder,measurement,value
B1,Kd,816 pM
